Legend:
[1] = target: T1, extracellular domain of the SARS-CoV-2 S protein (S-ECD) (SARS-CoV-2, Wuhan-Hu-1); assay: BLI
[2] = target: S-ECD of SARS-CoV-2 (cryo-EM sample) (SARS-CoV-2, Wuhan-Hu-1); assay: cryo-EM structure
[3] = target: T1, extracellular domain of the SARS-CoV-2 …; assay: cell-based or functional assay

B1: 4A8 (antibody, V domains shown)
VH: EVQLVESGAEVKKPGASVKVSCKVSGYTLTELSMHWVRQAPGKGLEWMGGFDPEDGETMYAQKFQGRVTMTEDTSTDTAYMELSSLRSEDTAVYYCATSTAVAGTPDLFDYYYGMDVWGQGTTVTVSS
VL: EIVMTQSPLSSPVTLGQPASISCRSSQSLVHSDGNTYLSWLQQRPGQPPRLLIYKISNRFSGVPDRFSGSGAGTDFTLKISRVEAEDVGVYYCTQATQFPYTFGQGTKVDIK
[1]
  Kd: < 2.14 nM
[2]
  stoichiometry N: 3
[3]
  neutralization of live (authentic) SARS-CoV-2 in Vero-E6 cells, EC50: 0.607 µg/mL

Reference: doi:10.1101/2020.05.08.083964 (bioRxiv, 2020)
